Assay results reported in patent publication US20030236190A1 (published 2003).
Non-standard residues stand in square brackets, D forms with d. No end group written: not given here. *: point of attachment. Biotin = O=C1N[C@H]2[C@H](CS[C@H]2CCCCC(=O)*)N1; Bpa = N[C@@H](Cc1ccc(C(=O)c2ccccc2)cc1)C(=O)O; Tic = O=C(O)[C@@H]1Cc2ccccc2CN1; Ac6c = NC1(C(=O)O)CCCCC1

B1: S527 (peptide)
peptide: H[Ac6c]CAQE[dW]GSEL[Tic]QCSGSESFYDWFERQL
modifications: not fully specified (bridges); printed as H-Acy-CAQEwGSEL-Tic-QCSGSESFYDWFERQL; cysteine pairing not given here
notes: leading H- read as His; it may mean a free N-terminus
B2: S546 (peptide)
peptide: SLEEEWAQVECEV[Bpa]GRGCPSGSLDESFYDWFERQ[Bpa]GK(Biotin)
modifications: not fully specified (bridges); printed as SLEEEWAQVECEV-Bpa-GRGCPSGSLDESFYDWFERQ-Bpa-GK(Biotin); cysteine pairing not given here

target: human insulin receptor (HIR) (human, UniProt P06213 28-1382, limits assumed); experiment: 125I-insulin competition, solubilised HIR

Binder	Kd
SLEEEWAQIESEVWGRXESFYDWFERQLG (X17 = βturn (unit not explained)) [S581]	0.012 nM
B1	2.4 nM
LDQEWAWVQCVYGRGCPSESFYDWFERQLG [S486]	57 nM
SLEEEWAQVECEVYGRGCPPGLLDESFYHWFDRQLR [S553]	0.0073 nM
SLEEEWAQIECEVWGRGCPKGFYGWFRRRRG [S584]	9.3 nM
SLEEEWAQIECEVYGRGCPSESFYDWFERQL [S557]	0.02 nM
SLEEEWAQIECEVWGRGCPSESFYDWFERQL [S558]	0.019 nM
SIEEEWAQIKCDVWGRGCPSESFYDWFERQL [S517]	0.6 nM
SLEEEWAQIQCEVWGRGCPSESFYDWFERQL [S606]	0.004 nM
SLEEEWAQVECEVYGRGCPSESFYDWFERQL [S530]	0.008 nM
SLEEEWAWVQCEVYGRGCPSESFYDWFERQL [S534]	0.01 nM
SLEEEWAQIECEVWGRGCPKGFYGWFRRRG [S582]	2.5 nM
SLEEEWAQVECEVYGRGCXESFYDWFERQLG (not fully specified; X19 = βturn (unit not explained)) [S580]	0.012 nM
RLEEEWAWVQCEVYGRGCPSGSLDESFYDWFERQLG [S518]	0.16 nM
SLEEEWAQVECEVWGRGCPSGSLDESFYDWFERQLG [S541]	0.0078 nM
SLEEEWAQVEAEVYGRGAPSGSLDESFYDWFERQLG [S551]	0.072 nM
SLEEEWAQVECEVYGRGCPSGSLDESFYH[dW]FERQLG (cysteine pairing not given here) [S542]	0.027 nM
SLEQEWAQVECEVYGRGCPSGSLDESFYDWFERQLG [S538]	0.038 nM
SLEHEWAQVECEVYGRGCPSGSLDESFYDWFERQLG [S537]	0.044 nM
SLELEWAQVECEVYGRGCPSGSLDESFYDWFERQLG [S539]	0.098 nM

Binder	Kd
SLEEEWAQVKCEVYGRGCPSGSLDESFYDWFERQLG [S540]	0.013 nM
SLEEEWAQIEEVWGRPSESFYDWFERQLG [S570]	0.73 nM
SLEEEWAQIEEVWGRGSESFYDWFERQLG [S571]	1.6 nM
SIEEEWAQIKCDVWGRGCPPGLLDESFYHWFDRQLR [S520]	0.02 nM
LDQEWAQVQCEVYGRGCPSESFYDWFERQL [S533]	0.067 nM
LDQEWAAVQCEVYGRGCPSESFYDWFERQL [S499]	0.62 nM
LDQAWAWVQCEVYGRGCPSESFYDWFERQL [S497]	2.5 nM
LAQEWAWVQCEVYGRGCPSESFYDWFERQL [S495]	2.6 nM
LDQEWAWVQCEVAGRGCPSESFYDWFERQL [S504]	13 nM
LDQEWAWVQCAVYGRGCPSESFYDWFERQL [S502]	3 nM
LEEEWAQVECEVYGRGCPSESFYDWFERQL [S536]	0.083 nM
LDQEWAWVQCEAYGRGCPSESFYDWFERQL [S503]	2.1 nM
LDQEAAWVQCEVYGRGCPSESFYDWFERQL [S498]	56 nM
SLEEEWAQIEEVWGRSESFYDWFERQLG [S572]	4.8 nM
Ac-SIEEEWAQIKCDVWGRGPSESFYDWFERQLG [S568]	0.0043 nM
WLDQEWAWVQCEVYGRGCPSDSDWAGYEWFEEQLD [S523]	4.3 nM
GSLDESFYDWFERQLGK (N-terminal acetyl; POX (not explained) between G16 and K17) [S550]	40 nM
SLEEEWAQIECEVWGRGCSESFYDWFERQL [S559]	0.021 nM
SIEEEWAQIKCDVWGRGCSESFYDWFERQL [S556]	0.032 nM
SLEEEWAQIQCEVWGR[dN][dC]SESFYDWFERQL (cysteine pairing not given here) [S563]	0.014 nM

Binder	Kd
SLEEEWAQVECEVYGRGCPSGGSGGSGLLDESFYHWFDRQLR [S510]	0.062 nM
SLEEEWAQVECEVYGRGCPS [S547]	49 nM
SLEEEWAQVECEVWGRGCPS [S548]	4.1 nM
SLEEEWAQIESEVWGRSESFYDWFERQLG [S573]	0.036 nM
B2	26 nM
WLDQEWAWVQCEVYGRGCPSGGSGGSSQAGSAFYAWFDQVLRTV [S512]	28 nM
WLDQEWAWVQCEVYGRGCPSGGSGGSGRVDWLQRNANFYDWFVAELG [S511]	3.8 nM
HLCVLEELFWGASLFGYCSGGSLDESFYDWFERQL [S521]	27 nM
SLEEEWAQIEEVWGRGPSESFYDWFERQLG (label printed as 3569; also called 3569) [S569]	0.15 nM
SLEEEWAWVECEVYGRGCPSGSLDESFYDWFERQL [S532]	0.037 nM
SLEEEWAQIECEVWGRGCSGSLDESFYDWFERQL [S561]	0.015 nM
SLEEEWAQVECEVYGRGCPSFYDWFERQL [S531]	0.075 nM
HHHHHHKLDQEWAWVQCEVYGRGCPSESFYDWFERQLG [S481]	13 nM
SIEEEWAQIKCDVWGRCSESFYDWFERQL [S562]	0.018 nM
Ac-SIEEEWAQIKCDVWGRGSESFYDWFERQL [S600]	0.0076 nM
SLEEEWAQIECEVYGRGCPSESFYDWFERQLG [S554]	0.0064 nM
SLEEEWAQIEAEVWGRGAPSESFYDWFERQLG [S574]	0.0092 nM
SLEEEWAQVECEVYGRGCPSESFYDWF[dV]RQLG (cysteine pairing not given here) [S555]	0.057 nM
SLEEEWAQVECEVYGRGCSGSLDESFYDWFERQLG [S549]	0.013 nM
SLEEEWAQIQCEVWGRCSESFYDWFERQL [S564]	0.013 nM
